Data from patent US20090117613A1, “Method for redox reaction using an old yellow enzyme” (priority 2007, published 2009).

Columns and labels:
[1] = Reduction of carvone to dihydrocarvone; format: biochemical; conditions: cyclohexenone and carvone as substrates
Protocol: The sample for the reduction reaction contained: 500 μL protein solution+(+)Carvone (˜1.5 μL)+200 μL GDH 102 (10 mg/mL) and Glucose (200 mM)+100 μL NADPH (10 mM). The final volume of the reaction was 800 μL. The reaction was carried out for 24 h at various temperatures (see table 2).

[2] = Desaturation of cyclohexanone to cyclohex-2-enone and phenol; conditions: 30, 50, and 70° C.
Protocol: The reaction sample contained 500 μL protein solution and 10 mM Cyclohexanone (˜1 μL). The final volume of the reaction was ˜500 μL. The reaction was carried out at 70° C. for 24 hours.
(§1) The desaturation reaction was carried out using cyclohexanone with all three enzymes at 30, 50, and 70° C. The reductase activity using cyclohexenone as substrate was also measured under similar conditions.

[3] = Reductase activity using cyclohexenone as substrate; format: biochemical; conditions: for reductase activity (saturation of cyclohexenone): 30, 50, and 70° C.
Protocol: as §1

[4] = GkOYE-catalyzed desaturation of testosterone to boldenone (HPLC/MS); format: biochemical; conditions: 30-70° C., varied in 5° C. increments

B1: OPR3: OPR3 (tomato) recombinant OYE, expression clone from TU-Graz (protein, UniProt Q9FEW9 1-396, looked up)
12-oxophytodienoate reductase …: MASSAQDGNNPLFSPYKMGKFNLSHRVVLAPMTRCRALNNIPQAALGEYYEQRATAGGFLITEGTMISPTSAGFPHVPGIFTKEQVREWKKIVDVVHAKGAVIFCQLWHVGRASHEVYQPAGAAPISSTEKPISNRWRILMPDGTHGIYPKPRAIGTYEISQVVEDYRRSALNAIEAGFDGIEIHGAHGYLIDQFLKDGINDRTDEYGGSLANRCKFITQVVQAVVSAIGADRVGVRVSPAIDHLDAMDSNPLSLGLAVVERLNKIQLHSGSKLAYLHVTQPRYVAYGQTEAGRLGSEEEEARLMRTLRNAYQGTFICSGGYTRELGIEAVAQGDADLVSYGRLFISNPDLVMRIKLNAPLNKYNRKTFYTQDPVVGYTDYPFLQGNGSNGPLSRL
Q: For B1, which “stereoselectivity of reductase activity” value [1] is on record?
A: The value was “comparable to GkOYE”.

Q: And the desaturation of cyclohexanone [2]?
A: The desaturation of cyclohexanone was “no desaturation was observed”.

Q: What about the “reductase activity (saturation of cyclohexenone)” value [3] of the same molecule?
A: Its value is “almost inactive at 50 °C”.

B2: YqjM: Homologous OYE from Bacillus subtilis (similarity: 80%), expression clone from TU-Graz (protein, UniProt P54550 2-338, looked up)
NADPH dehydrogenase: ARKLFTPITIKDMTLKNRIVMSPMCMYSSHEKDGKLTPFHMAHYISRAIGQVGLIIVEASAVNPQGRITDQDLGIWSDEHIEGFAKLTEQVKEQGSKIGIQLAHAGRKAELEGDIFAPSAIAFDEQSATPVEMSAEKVKETVQEFKQAAARAKEAGFDVIEIHAAHGYLIHEFLSPLSNHRTDEYGGSPENRYRFLREIIDEVKQVWDGPLFVRVSASDYTDKGLDIADHIGFAKWMKEQGVDLIDCSSGALVHADINVFPGYQVSFAEKIREQADMATGAVGMITDGSMAEEILQNGRADLIFIGRELLRDPFFARTAAKQLNTEIPAPVQYERGW
Q: What does the source list for B2?
A: testosterone hydroxylation or desaturation (oxidized testosterone derivative) [4]: no oxidized testosterone derivative is detected; stereoselectivity of reductase activity [1]: comparable to GkOYE; desaturation of cyclohexanone [2]: no desaturation was observed; reductase activity (saturation of cyclohexenone) [3]: significantly reduced reductase activity; enone reductase activity ([3]; 70° C.): demonstrated
